The text below walks through data of KR20240007815A (dated 2024).

In test [1] the target is 인간 BDCA-2 (Blood dendritic cell antigen 2, CLEC4C) (human) (UniProt Q8WTT0). In words: flow cytometry, double staining of human PBMC with anti-CD123 and anti-BDCA-2. For orientation: A flow cytometer gives signals particle by particle.
For test [2] the target is unchanged. The test is described as follows: flow cytometry, double staining of human PBMC with anti-CD123 and 201A.
For test [3], the target named is T1, 인간 BDCA-2 (Blood dendritic cell antigen 2, CLEC4C) (human, UniProt Q8WTT0 1-213).
T1 construct: whole, on cells; also called human BDCA-2
T1 sequence (looked up): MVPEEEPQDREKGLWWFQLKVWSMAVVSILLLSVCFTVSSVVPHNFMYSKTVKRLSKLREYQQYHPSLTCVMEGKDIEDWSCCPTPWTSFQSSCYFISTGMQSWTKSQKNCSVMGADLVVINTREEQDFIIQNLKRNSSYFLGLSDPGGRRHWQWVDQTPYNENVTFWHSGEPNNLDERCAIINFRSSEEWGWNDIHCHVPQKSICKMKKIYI
In words: flow cytometry on 293 cells expressing human BDCA-2, anti-human IgG-APC secondary.

In test [1], “anti-BDCA-2 (AC144, Miltenyi) (antibody)” gave a % CD123+ BDCA-2+ 세포 (donor-1 PBMC) of 0.51% and a % CD123+ BDCA-2+ 세포 (donor-2 PBMC) of 0.15%.

B1: 인간 BDCA-2에 결합하는 마우스 단일클론 항체 201A (antibody, mouse IgG2a, kappa, V domains shown)
VH: DVKLVESGGGLVKPGGSLNLSCAASGFTFSSYTMSWVRQNPEKRLEWVATISSGGSYTYYPDSVKGRFTISRDNAKNTLYLQMSSLKSEDTAMYYCTRDRGDYDYDEGYYFDYWGQGTTLTVSS
VL: NIVLTQSPASLAVSLGQRATISCRASASVDSYGNSFMHWYQQKPGQPPKLLIYLASNLESGVPARFSGSGSRTDFTLTIDPVEADDAATYYCQQNNEDPRTFGGGTKLEIKR
For B1, in test [2], the % CD123+ BDCA-2+ 세포 (donor-1 PBMC) turned out to be 0.65% and the % CD123+ BDCA-2+ 세포 (donor-2 PBMC) was 0.16%.

B2: 201A 인간화 항체 201H (antibody, human IgG1, kappa, V domains shown)
VH: EVQLVESGGGLVKPGGSLRLSCAASGFTFSSYTMSWVRQAPGKGLEWVATISSGGSYTYYPDSVKGRFTISRDNAKNSLYLQMNSLRAEDTAVYYCTRDRGDYDYDEGYYFDYWGQGTLVTVSS
VL: DIVLTQSPASLAVSPGQRATITCRASASVDSYGNSFMHWYQQKPGQPPKLLIYLASNLESGVPARFSGSGSRTDFTLTINPVEANDTANYYCQQNNEDPRTFGGGTKVEIKR
notes: Humanised antibody made in Expi293 cells, purified on protein G; detected with anti-human IgG Fc
Consider B2, for which, in test [3], the binding result was “binds”.

B3: 201A 키메라 항체 201C (antibody, human IgG1, kappa, V domains shown)
VH: DVKLVESGGGLVKPGGSLNLSCAASGFTFSSYTMSWVRQNPEKRLEWVATISSGGSYTYYPDSVKGRFTISRDNAKNTLYLQMSSLKSEDTAMYYCTRDRGDYDYDEGYYFDYWGQGTTLTVSS
VL: NIVLTQSPASLAVSLGQRATISCRASASVDSYGNSFMHWYQQKPGQPPKLLIYLASNLESGVPARFSGSGSRTDFTLTIDPVEADDAATYYCQQNNEDPRTFGGGTKLEIKR
notes: Chimeric antibody made in Expi293 cells, purified on protein G; detected with anti-human IgG Fc
B3: the binding result in test [3] was “binds”.
